PMC7416571 (Journal of molecular biology, 2019)

Legend:
Test in all cases: AUC
[1] = target: T1, phage λ terminase large subunit TerL^λ, wild type (phage λ, UniProt P03708 1-641)
T1 sequence (looked up): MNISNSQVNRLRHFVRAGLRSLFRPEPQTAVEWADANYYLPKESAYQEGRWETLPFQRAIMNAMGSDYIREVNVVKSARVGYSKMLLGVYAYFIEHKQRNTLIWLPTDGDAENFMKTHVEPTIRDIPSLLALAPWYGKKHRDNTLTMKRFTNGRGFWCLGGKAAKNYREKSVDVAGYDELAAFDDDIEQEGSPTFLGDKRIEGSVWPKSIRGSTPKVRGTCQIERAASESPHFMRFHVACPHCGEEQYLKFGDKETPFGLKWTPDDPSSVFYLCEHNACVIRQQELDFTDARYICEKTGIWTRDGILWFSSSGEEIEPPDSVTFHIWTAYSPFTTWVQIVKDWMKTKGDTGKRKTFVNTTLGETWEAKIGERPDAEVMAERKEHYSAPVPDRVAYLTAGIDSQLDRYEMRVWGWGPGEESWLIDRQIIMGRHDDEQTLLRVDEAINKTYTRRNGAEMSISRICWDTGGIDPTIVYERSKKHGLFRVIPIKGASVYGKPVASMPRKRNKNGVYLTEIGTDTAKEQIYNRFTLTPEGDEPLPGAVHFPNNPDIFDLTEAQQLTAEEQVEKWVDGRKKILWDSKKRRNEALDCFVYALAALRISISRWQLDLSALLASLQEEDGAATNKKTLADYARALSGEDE

[2] = target: T2, phage λ terminase large subunit TerL^λ-D178N (phage λ, UniProt P03708 1-641, D178N)
T2 sequence (looked up): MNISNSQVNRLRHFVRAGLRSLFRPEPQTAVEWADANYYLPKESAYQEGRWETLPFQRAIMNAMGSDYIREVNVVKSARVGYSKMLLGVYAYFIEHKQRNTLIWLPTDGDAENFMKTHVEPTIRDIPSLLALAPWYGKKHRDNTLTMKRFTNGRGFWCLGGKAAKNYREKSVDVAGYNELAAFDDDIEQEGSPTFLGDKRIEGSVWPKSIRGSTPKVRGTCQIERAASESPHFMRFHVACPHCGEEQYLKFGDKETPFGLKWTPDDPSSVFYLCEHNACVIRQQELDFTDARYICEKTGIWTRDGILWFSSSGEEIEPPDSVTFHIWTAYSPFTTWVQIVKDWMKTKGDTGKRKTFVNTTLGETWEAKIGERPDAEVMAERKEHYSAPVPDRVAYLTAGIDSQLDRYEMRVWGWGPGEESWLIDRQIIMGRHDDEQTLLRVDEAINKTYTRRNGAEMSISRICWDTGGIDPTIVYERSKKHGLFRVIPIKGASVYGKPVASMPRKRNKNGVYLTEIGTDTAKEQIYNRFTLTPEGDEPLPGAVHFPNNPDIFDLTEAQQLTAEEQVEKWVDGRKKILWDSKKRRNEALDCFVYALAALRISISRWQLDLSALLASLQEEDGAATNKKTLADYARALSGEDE

AUC = target: the molecule itself

Measured: binding result

B1: phage λ terminase small subunit TerS^λ (natural protein, UniProt P03707 1-181, looked up)
chain: MEVNKKQLADIFGASIRTIQNWQEQGMPVLRGGGKGNEVLYDSAAVIKWYAERDAEIENEKLRREVEELRQASEADLQPGTIEYERHRLTRAQADAQELKNARDSAEVVETAFCTFVLSRIAGEIASILDGLPLSVQRRFPELENRHVDFLKRDIIKAMNKAAALDELIPGLLSEYIEQSG
binds: [1] | [2] | AUC
